Source: paper PMC4453530

Tests used:
[1] = biological target: T1, DDK/Myc tag peptide; assay: EMSA
T1 chain: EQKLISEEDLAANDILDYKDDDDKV

[2] = biological target: EPRS purified recombinant (UniProt P07814 1-1512); assay: EMSA
Chain of EPRS purified recombinant (P07814 whole entry): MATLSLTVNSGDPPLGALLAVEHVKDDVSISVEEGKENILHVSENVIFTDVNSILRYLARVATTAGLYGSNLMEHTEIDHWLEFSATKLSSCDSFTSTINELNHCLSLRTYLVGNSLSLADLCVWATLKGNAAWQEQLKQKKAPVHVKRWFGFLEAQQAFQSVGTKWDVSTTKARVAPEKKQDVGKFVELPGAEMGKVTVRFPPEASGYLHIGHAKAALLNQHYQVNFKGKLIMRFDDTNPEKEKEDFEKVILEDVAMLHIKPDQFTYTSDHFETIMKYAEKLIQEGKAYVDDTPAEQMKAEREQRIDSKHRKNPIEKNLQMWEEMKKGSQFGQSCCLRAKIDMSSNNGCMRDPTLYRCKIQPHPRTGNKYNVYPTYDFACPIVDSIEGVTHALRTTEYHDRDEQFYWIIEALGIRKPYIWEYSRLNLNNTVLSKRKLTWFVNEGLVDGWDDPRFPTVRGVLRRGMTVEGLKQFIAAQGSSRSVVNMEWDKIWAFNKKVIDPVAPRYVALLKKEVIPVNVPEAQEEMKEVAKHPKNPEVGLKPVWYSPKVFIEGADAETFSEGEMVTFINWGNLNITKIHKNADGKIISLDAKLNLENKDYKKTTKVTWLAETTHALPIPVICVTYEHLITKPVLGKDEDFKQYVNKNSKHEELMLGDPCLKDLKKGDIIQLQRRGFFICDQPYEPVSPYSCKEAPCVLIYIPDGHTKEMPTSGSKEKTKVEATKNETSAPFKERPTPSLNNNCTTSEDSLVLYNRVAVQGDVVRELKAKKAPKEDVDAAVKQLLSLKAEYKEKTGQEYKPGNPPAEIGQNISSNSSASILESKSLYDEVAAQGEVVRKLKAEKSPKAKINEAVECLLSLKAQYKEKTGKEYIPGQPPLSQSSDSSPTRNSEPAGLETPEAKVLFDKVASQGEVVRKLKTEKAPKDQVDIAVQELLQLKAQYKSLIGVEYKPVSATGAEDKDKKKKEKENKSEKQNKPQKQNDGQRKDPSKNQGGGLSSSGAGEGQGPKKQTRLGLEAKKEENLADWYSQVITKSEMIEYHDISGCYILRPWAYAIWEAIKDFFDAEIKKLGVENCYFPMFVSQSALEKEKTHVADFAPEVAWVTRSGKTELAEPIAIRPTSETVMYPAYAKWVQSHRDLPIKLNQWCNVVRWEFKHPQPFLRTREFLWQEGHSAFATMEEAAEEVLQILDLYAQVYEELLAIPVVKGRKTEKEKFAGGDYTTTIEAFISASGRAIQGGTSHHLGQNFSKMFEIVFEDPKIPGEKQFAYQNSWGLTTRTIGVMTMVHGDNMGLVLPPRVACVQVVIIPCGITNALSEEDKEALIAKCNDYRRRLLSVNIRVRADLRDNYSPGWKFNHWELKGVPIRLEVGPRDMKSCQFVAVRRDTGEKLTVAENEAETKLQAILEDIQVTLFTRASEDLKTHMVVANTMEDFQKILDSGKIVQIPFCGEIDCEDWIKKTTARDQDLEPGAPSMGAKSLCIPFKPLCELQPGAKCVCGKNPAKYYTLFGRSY

B1: F2.2L (TGEV GAIT-like RNA motif) (structured_RNA)
RNA: AAUCUUAAAACUGUCAAUGACUUUAAUAUCUU
B1: no binding [1]; binds [2].
